Assay results: patent US20180155451A1 (published 2018)

T1: FcγRIIb (human, UniProt P31994 43-217)
T1 construct: extracellular domain; also called 2b; FcgRIIb
T1 sequence (looked up): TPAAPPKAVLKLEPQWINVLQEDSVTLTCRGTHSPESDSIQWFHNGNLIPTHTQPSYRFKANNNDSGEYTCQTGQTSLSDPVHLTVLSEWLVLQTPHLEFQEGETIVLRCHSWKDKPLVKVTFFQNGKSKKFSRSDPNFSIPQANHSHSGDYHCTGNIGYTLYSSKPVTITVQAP

B1: GpH7-A5/GpH7-B3 variant A327_18N/GpL16-k0 (antibody, human IgG1, kappa)
heavy 1: not shown
heavy 2: not shown
light: DIVMTQSPLSLPVTPGEPASISCQASESLVHSNRNTYLHWYLQKPGQSPQLLIYKVSNRFSGVPDRFSGSGSGTDFTLKISRVEAEDVGVYYCSQNTHVPPTFGQGTKVEIERTVAAPSVFIFPPSDEQLKSGTASVVCLLNNFYPREAKVQWKVDNALQSGNSQESVTEQDSKDSTYSLSSTLTLSKADYEKHKVYACEVTHQGLSSPVTKSFNRGEC
notes: also called He Ab A327_18N
B2: GpH7-A5/GpH7-B3 variant L234_20W/GpL16-k0 (antibody, human IgG1, kappa)
heavy 1: not shown
heavy 2: not shown
light: B1 light
notes: also called He Ab L234_20W
B3: GpH7-A5/GpH7-B3 variant N325_20W/GpL16-k0 (antibody, human IgG1, kappa)
heavy 1: not shown
heavy 2: not shown
light: B1 light
notes: also called He Ab N325_20W
B4: GpH7-A5/GpH7-B3 variant I332_02A/GpL16-k0 (antibody, human IgG1, kappa)
heavy 1: not shown
heavy 2: not shown
light: B1 light
notes: also called He Ab I332_02A
B5: GpH7-A5/GpH7-B3 variant P238_03V/GpL16-k0 (antibody, human IgG1, kappa)
heavy 1: not shown
heavy 2: not shown
light: B1 light
notes: also called He Ab P238_03V
B6: GpH7-A5/GpH7-B3 variant N325_03V/GpL16-k0 (antibody, human IgG1, kappa)
heavy 1: not shown
heavy 2: not shown
light: B1 light
notes: also called He Ab N325_03V
B7: GpH7-A5/GpH7-B3 variant G237_04F/GpL16-k0 (antibody, human IgG1, kappa)
heavy 1: not shown
heavy 2: not shown
light: B1 light
notes: also called He Ab G237_04F
B8: GpH7-A5/GpH7-B3 variant N325_08L/GpL16-k0 (antibody, human IgG1, kappa)
heavy 1: not shown
heavy 2: not shown
light: B1 light
notes: also called He Ab N325_08L
B9: GpH7-A5/GpH7-B3 variant L328_10E/GpL16-k0 (antibody, human IgG1, kappa)
heavy 1: not shown
heavy 2: not shown
light: B1 light
notes: also called He Ab L328_10E
B10: GpH7-A5/GpH7-B3 variant G237_19Q/GpL16-k0 (antibody, human IgG1, kappa)
heavy 1: not shown
heavy 2: not shown
light: B1 light
notes: also called He Ab G237_19Q
B11: GpH7-A5/GpH7-B3 variant L328_09D/GpL16-k0 (antibody, human IgG1, kappa)
heavy 1: not shown
heavy 2: not shown
light: B1 light
notes: also called He Ab L328_09D
B12: GpH7-A5/GpH7-B3 variant L235_15Y/GpL16-k0 (antibody, human IgG1, kappa)
heavy 1: not shown
heavy 2: not shown
light: B1 light
notes: also called He Ab L235_15Y
B13: GpH7-A5/GpH7-B3 variant G237_08L/GpL16-k0 (antibody, human IgG1, kappa)
heavy 1: not shown
heavy 2: not shown
light: B1 light
notes: also called He Ab G237_08L
B14: GpH7-A5/GpH7-B3 variant G237_13S/GpL16-k0 (antibody, human IgG1, kappa)
heavy 1: not shown
heavy 2: not shown
light: B1 light
notes: also called He Ab G237_13S
B15: GpH7-A5/GpH7-B3 variant K326_08L/GpL16-k0 (antibody, human IgG1, kappa)
heavy 1: not shown
heavy 2: not shown
light: B1 light
notes: also called He Ab K326_08L
B16: GpH7-A5/GpH7-B3 variant G237_06M/GpL16-k0 (antibody, human IgG1, kappa)
heavy 1: not shown
heavy 2: not shown
light: B1 light
notes: also called He Ab G237_06M
B17: GpH7-A5/GpH7-B3 variant K326_20W/GpL16-k0 (antibody, human IgG1, kappa)
heavy 1: not shown
heavy 2: not shown
light: B1 light
notes: also called He Ab K326_20W
B18: GpH7-A5/GpH7-B3 variant P238_16H/GpL16-k0 (antibody, human IgG1, kappa)
heavy 1: not shown
heavy 2: not shown
light: B1 light
notes: also called He Ab P238_16H
B19: GpH7-A5/GpH7-B3 variant L328_13S/GpL16-k0 (antibody, human IgG1, kappa)
heavy 1: not shown
heavy 2: not shown
light: B1 light
notes: also called He Ab L328_13S
B20: GpH7-A5/GpH7-B3 variant P238_09D/GpL16-k0 (antibody, human IgG1, kappa)
heavy 1: not shown
heavy 2: not shown
light: B1 light
notes: also called He Ab P238_09D
B21: GpH7-A5/GpH7-B3 variant L234_09D/GpL16-k0 (antibody, human IgG1, kappa)
heavy 1: not shown
heavy 2: not shown
light: B1 light
notes: also called He Ab L234_09D
B22: GpH7-A5/GpH7-B3 variant P238_04F/GpL16-k0 (antibody, human IgG1, kappa)
heavy 1: not shown
heavy 2: not shown
light: B1 light
notes: also called He Ab P238_04F
B23: GpH7-A5/GpH7-B3 variant G237_09D/GpL16-k0 (antibody, human IgG1, kappa)
heavy 1: not shown
heavy 2: not shown
light: B1 light
notes: also called He Ab G237_09D
B24: GpH7-A5/GpH7-B3 variant P238_10E/GpL16-k0 (antibody, human IgG1, kappa)
heavy 1: not shown
heavy 2: not shown
light: B1 light
notes: also called He Ab P238_10E
B25: GpH7-A5/GpH7-B3 variant L234_10E/GpL16-k0 (antibody, human IgG1, kappa)
heavy 1: not shown
heavy 2: not shown
light: B1 light
notes: also called He Ab L234_10E
B26: GpH7-A5/GpH7-B3 variant P238_06M/GpL16-k0 (antibody, human IgG1, kappa)
heavy 1: not shown
heavy 2: not shown
light: B1 light
notes: also called He Ab P238_06M
B27: GpH7-A5/GpH7-B3 variant H268_15Y/GpL16-k0 (antibody, human IgG1, kappa)
heavy 1: not shown
heavy 2: not shown
light: B1 light
notes: also called He Ab H268_15Y
B28: GpH7-A5/GpH7-B3 variant L235_04F/GpL16-k0 (antibody, human IgG1, kappa)
heavy 1: not shown
heavy 2: not shown
light: B1 light
notes: also called He Ab L235_04F
B29: GpH7-A5/GpH7-B3 variant I336_08L/GpL16-k0 (antibody, human IgG1, kappa)
heavy 1: not shown
heavy 2: not shown
light: B1 light
notes: also called He Ab I336_08L
B30: GpH7-A5/GpH7-B3 variant G237_15Y/GpL16-k0 (antibody, human IgG1, kappa)
heavy 1: not shown
heavy 2: not shown
light: B1 light
notes: also called He Ab G237_15Y
B31: GpH7-A5/GpH7-B3 variant N325_06M/GpL16-k0 (antibody, human IgG1, kappa)
heavy 1: not shown
heavy 2: not shown
light: B1 light
notes: also called He Ab N325_06M
B32: GpH7-A5/GpH7-B3 variant N325_04F/GpL16-k0 (antibody, human IgG1, kappa)
heavy 1: not shown
heavy 2: not shown
light: B1 light
notes: also called He Ab N325_04F
B33: GpH7-A5/GpH7-B3 variant K326_07I/GpL16-k0 (antibody, human IgG1, kappa)
heavy 1: not shown
heavy 2: not shown
light: B1 light
notes: also called He Ab K326_07I
B34: GpH7-A5/GpH7-B3 variant G237_10E/GpL16-k0 (antibody, human IgG1, kappa)
heavy 1: not shown
heavy 2: not shown
light: B1 light
notes: also called He Ab G237_10E
B35: GpH7-A5/GpH7-B3 variant A330_05P/GpL16-k0 (antibody, human IgG1, kappa)
heavy 1: not shown
heavy 2: not shown
light: B1 light
notes: also called He Ab A330_05P
B36: GpH7-A5/GpH7-B3 variant N325_01G/GpL16-k0 (antibody, human IgG1, kappa)
heavy 1: not shown
heavy 2: not shown
light: B1 light
notes: also called He Ab N325_01G
B37: GpH7-A5/GpH7-B3 variant A330_01G/GpL16-k0 (antibody, human IgG1, kappa)
heavy 1: not shown
heavy 2: not shown
light: B1 light
notes: also called He Ab A330_01G
B38: GpH7-A5/GpH7-B3 variant L328_02A/GpL16-k0 (antibody, human IgG1, kappa)
heavy 1: not shown
heavy 2: not shown
light: B1 light
notes: also called He Ab L328_02A
B39: GpH7-A5/GpH7-B3 variant L235_20W/GpL16-k0 (antibody, human IgG1, kappa)
heavy 1: not shown
heavy 2: not shown
light: B1 light
notes: also called He Ab L235_20W
B40: GpH7-A5/GpH7-B3 variant I336_06M/GpL16-k0 (antibody, human IgG1, kappa)
heavy 1: not shown
heavy 2: not shown
light: B1 light
notes: also called He Ab I336_06M
B41: GpH7-A5/GpH7-B3 variant H268_03V/GpL16-k0 (antibody, human IgG1, kappa)
heavy 1: not shown
heavy 2: not shown
light: B1 light
notes: also called He Ab H268_03V
B42: GpH7-A5/GpH7-B3 variant P238_19Q/GpL16-k0 (antibody, human IgG1, kappa)
heavy 1: not shown
heavy 2: not shown
light: B1 light
notes: also called He Ab P238_19Q
B43: GpH7-A5/GpH7-B3 variant N325_09D/GpL16-k0 (antibody, human IgG1, kappa)
heavy 1: not shown
heavy 2: not shown
light: B1 light
notes: also called He Ab N325_09D
B44: GpH7-A5/GpH7-B3 variant I332_14T/GpL16-k0 (antibody, human IgG1, kappa)
heavy 1: not shown
heavy 2: not shown
light: B1 light
notes: also called He Ab I332_14T
B45: GpH7-A5/GpH7-B3 variant N325_13S/GpL16-k0 (antibody, human IgG1, kappa)
heavy 1: not shown
heavy 2: not shown
light: B1 light
notes: also called He Ab N325_13S
B46: GpH7-A5/GpH7-B3 variant L235_09D/GpL16-k0 (antibody, human IgG1, kappa)
heavy 1: not shown
heavy 2: not shown
light: B1 light
notes: also called He Ab L235_09D
B47: GpH7-A5/GpH7-B3 variant P238_15Y/GpL16-k0 (antibody, human IgG1, kappa)
heavy 1: not shown
heavy 2: not shown
light: B1 light
notes: also called He Ab P238_15Y
B48: GpH7-A5/GpH7-B3 variant G237_20W/GpL16-k0 (antibody, human IgG1, kappa)
heavy 1: not shown
heavy 2: not shown
light: B1 light
notes: also called He Ab G237_20W
B49: GpH7-A5/GpH7-B3 variant H268_05P/GpL16-k0 (antibody, human IgG1, kappa)
heavy 1: not shown
heavy 2: not shown
light: B1 light
notes: also called He Ab H268_05P
B50: GpH7-A5/GpH7-B3 variant G237_18N/GpL16-k0 (antibody, human IgG1, kappa)
heavy 1: not shown
heavy 2: not shown
light: B1 light
notes: also called He Ab G237_18N
B51: GpH7-A5/GpH7-B3 variant N325_07I/GpL16-k0 (antibody, human IgG1, kappa)
heavy 1: not shown
heavy 2: not shown
light: B1 light
notes: also called He Ab N325_07I

Molecular target: T1, FcγRIIb
Experiment: SPR (Biacore), binding relative to GpH7-A5/GpH7-B3/GpL16-k0 = 100
Description: Analysis of interaction between objective antibody and the FcγR was carried out using Biacore T100 (GE Healthcare). HBS-EP+ (GE Healthcare) was used as the running buffer, and the measurement temperature was set to 25° C. Chips produced by immobilizing the antigen peptide by the amine coupling method to a Series S Sencor Chip CM5 (GE Healthcare), or alternatively, chips produced by allowing preliminarily biotinylated antigen peptides to interact with and immobilize onto a Series S Sensor Chip SA (certified) (GE Healthcare) were used. Antibodies of interest were captured onto an antigen peptide-immobilized chip, and allowed to interact to each FcγR diluted with running buffer. To regenerate and repeatedly use the chip, the antibodies captured on the chip were washed off by reacting 10 mM glycine-HCl, pH 1.5.
The FcγR-binding activity of each antibody was assessed primarily using as an indicator the FcγR-binding activity and dissociation constant for FcγR.

| Binder | He/Con_2b |
| --- | --- |
| B1 | 113 % of control |
| B2 | 114 % of control |
| B3 | 169 % of control |
| B4 | 103 % of control |
| B5 | 120 % of control |
| B6 | 111 % of control |
| B7 | 149 % of control |
| B8 | 197 % of control |
| B9 | 172 % of control |
| B10 | 108 % of control |
| B11 | 199 % of control |
| B12 | 149 % of control |
| B13 | 148 % of control |
| B14 | 111 % of control |
| B15 | 177 % of control |
| B16 | 130 % of control |
| B17 | 148 % of control |
| B18 | 115 % of control |
| B19 | 149 % of control |
| B20 | 221 % of control |
| B21 | 150 % of control |
| B22 | 312 % of control |
| B23 | 223 % of control |
| B24 | 232 % of control |
| B25 | 118 % of control |
| B26 | 174 % of control |

| Binder | He/Con_2b |
| --- | --- |
| B27 | 106 % of control |
| B28 | 118 % of control |
| B29 | 107 % of control |
| B30 | 152 % of control |
| B31 | 217 % of control |
| B32 | 143 % of control |
| B33 | 199 % of control |
| B34 | 114 % of control |
| B35 | 137 % of control |
| B36 | 101 % of control |
| B37 | 104 % of control |
| B38 | 144 % of control |
| B39 | 147 % of control |
| B40 | 101 % of control |
| B41 | 114 % of control |
| B42 | 110 % of control |
| B43 | 124 % of control |
| B44 | 106 % of control |
| B45 | 177 % of control |
| B46 | 106 % of control |
| B47 | 218 % of control |
| B48 | 193 % of control |
| B49 | 116 % of control |
| B50 | 180 % of control |
| B51 | 171 % of control |
